Test results published in patent publication US20230212319A1, “NOVEL ANTIGEN BINDING DOMAINS AND SYNTHETIC ANTIGEN RECEPTORS INCORPORATING THE SAME” (University of Southern California, priority 2020, published 2023).

B1: 22221 (protein)
chain: MALPVTALLLPLALLLHAARPACEVQLLESGGGLIQPGGSLRLSCAASGFTFSSHAMTWVRQAPGKGLEWVSAISGSGDYTHYADSVKGRFTISRDNSKNTVYLQMNSLRAEDSAVYYCAKDEDGGSLLGHRGQGTLVTVSSGTGPQGIFGQPGYINEFDIQMTQSPSSLSASVGDRVTITCKASDHINNWLAWYQQKPGQAPKLLIYGATTLETGVPSRFSGSGSGTDYTLTISSLQPEDFATYYCQQSWNTPWTFGQGTKLEIKRLEDLKNVFPPEVAVFEPSKAEIAHTQKATLVCLATGFYPDHVELSWWVNGKEVHSGVCTDPQPLKEQPALNDSRYCLSSRLRVSATFWQNPRNHFRCQVQFYGLSENDEWTQDRAKPVTQIVSAEAWGRADCGITSASYHQGVLSATILYEILLGKATLYAVLVSALVLMAMVKRKDSRGRAKRSGSGATNFSLLKQAGDVEENPGPTSATMDWIWRILFLVGAATGAHSGPEVQLVESGGGLVQAGGSLRLSCAASGRTFSMGWFRQAPGKEREFVAAITYSGGSPYYADSVKGRFTISRDNAKNTVYLQMNSLKPEDTAVYYCAANPTYGSDWNAENWGQGTQVTVSSGSGGGGSGGGGSGGGGSFEQVQLQQPGAELVKPGASVKMSCKASGYAFSSYWINWMKQKPGQGLEWIGQIYPGDGDTNYNGKFKGRATLTADTSSSTAYMQLSSLTSEDSAVYFCARSITTVVGCAMDYWGQGTSVTVSSTRIQNPDPAVYQLRDSKSSDKSVCLFTDFDSQTNVSQSKDSDVYITDKCVLDMRSMDFKSNSAVAWSNKSDFACANAFNNSIIPEDTFFPSPESSCDVKLVEKSFETDTNLNFQNLSVIGFRILLLKVAGFNLLMTLRLWSSRAKRSGSGVKQTLNFDLLKLAGDVESNPGPSRGHMTEYKPTVRLATRDDVPRAVRTLAAAFADYPATRHTVDPDRHIERVTELQELFLTRVGLDIGKVWVADDGAAVAVWTTPESVEAGAVFAEIGPRMAELSGSRLAAQQQMEGLLAPHRPKEPAWFLATVGVSPDHQGKGLGSAVVLPGVEAAERAGVPAFLETSAPRNLPFYERLGFTVTADVEVPEGPRTWCMTRKPGA
B2: 22225 (protein)
chain: MALPVTALLLPLALLLHAARPDIQMTQSPSSLSASVGDRVTITCKASDHINNWLAWYQQKPGQAPKLLIYGATTLETGVPSRFSGSGSGTDYTLTISSLQPEDFATYYCQQSWNTPWTFGQGTKLEIKRLEDLKNVFPPEVAVFEPSEAEISHTQKATLVCLATGFYPDHVELSWWVNGKEVHSGVCTDPQPLKEQPALNDSRYCLSSRLRVSATFWQNPRNHFRCQVQFYGLSENDEWTQDRAKPVTQIVSAEAWGRADCGFTSESYQQGVLSATILYEILLGKATLYAVLVSALVLMAMVKRKDSRGRAKRSGSGATNFSLLKQAGDVEENPGPTSATMDWIWRILFLVGAATGAHSGPEVQLVESGGGLVQAGGSLRLSCAASGRTFTMGWFRQAPGKEREFVAAISLSPTLAYYADSVKGRFTISRDNAKNTVVLQMNSLKPEDTALYYCAADRKSVMSIRPDYWGQGTQVTVSSGSGPLGIAGIFEQVQLQQPGAELVKPGASVKMSCKASGYAFSSYWINWMKQKPGQGLEWIGQIYPGDGDTNYNGKFKGRATLTADTSSSTAYMQLSSLTSEDSAVYFCARSITTVVGCAMDYWGQGTSVTVSSTRIQNPDPAVYQLRDSKSSDKSVCLFTDFDSQTNVSQSKDSDVYITDKCVLDMRSMDFKSNSAVAWSNKSDFACANAFNNSIIPEDTFFPSPESSCDVKLVEKSFETDTNLNFQNLSVIGFRILLLKVAGFNLLMTLRLWSSRAKRSGSGVKQTLNFDLLKLAGDVESNPGPSRGHMTEYKPTVRLATRDDVPRAVRTLAAAFADYPATRHTVDPDRHIERVTELQELFLTRVGLDIGKVWVADDGAAVAVWTTPESVEAGAVFAEIGPRMAELSGSRLAAQQQMEGLLAPHRPKEPAWFLATVGVSPDHQGKGLGSAVVLPGVEAAERAGVPAFLETSAPRNLPFYERLGFTVTADVEVPEGPRTWCMTRKPGA
B3: 22250 (protein)
chain: B2 chain
B4: 22249 (protein)
chain: MALPVTALLLPLALLLHAARPDIQMTQSPSSLSASVGDRVTITCKASDHINNWLAWYQQKPGQAPKLLIYGATTLETGVPSRFSGSGSGTDYTLTISSLQPEDFATYYCQQSWNTPWTFGQGTKLEIKRLEDLKNVFPPEVAVFEPSEAEISHTQKATLVCLATGFYPDHVELSWWVNGKEVHSGVCTDPQPLKEQPALNDSRYCLSSRLRVSATFWQNPRNHFRCQVQFYGLSENDEWTQDRAKPVTQIVSAEAWGRADCGFTSESYQQGVLSATILYEILLGKATLYAVLVSALVLMAMVKRKDSRGRAKRSGSGATNFSLLKQAGDVEENPGPTSATMDWIWRILFLVGAATGAHSGPEVQLVESGGGLVQAGGSLRLSCAASGRTFTMGWFRQAPGKEREFVAAISLSPTLAYYADSVKGRFTISRDNAKNTVVLQMNSLKPEDTALYYCAADRKSVMSIRPDYWGQGTQVTVSSGSALRRLLGLFGFEQVQLQQPGAELVKPGASVKMSCKASGYAFSSYWINWMKQKPGQGLEWIGQIYPGDGDTNYNGKFKGRATLTADTSSSTAYMQLSSLTSEDSAVYFCARSITTVVGCAMDYWGQGTSVTVSSTRIQNPDPAVYQLRDSKSSDKSVCLFTDFDSQTNVSQSKDSDVYITDKCVLDMRSMDFKSNSAVAWSNKSDFACANAFNNSIIPEDTFFPSPESSCDVKLVEKSFETDTNLNFQNLSVIGFRILLLKVAGFNLLMTLRLWSSRAKRSGSGVKQTLNFDLLKLAGDVESNPGPSRGHMTEYKPTVRLATRDDVPRAVRTLAAAFADYPATRHTVDPDRHIERVTELQELFLTRVGLDIGKVWVADDGAAVAVWTTPESVEAGAVFAEIGPRMAELSGSRLAAQQQMEGLLAPHRPKEPAWFLATVGVSPDHQGKGLGSAVVLPGVEAAERAGVPAFLETSAPRNLPFYERLGFTVTADVEVPEGPRTWCMTRKPGA
B5: 22145 (protein)
chain: MALPVTALLLPLALLLHAARPACEVQLLESGGGLIQPGGSLRLSCAASGFTFSSHAMTWVRQAPGKGLEWVSAISGSGDYTHYADSVKGRFTISRDNSKNTVYLQMNSLRAEDSAVYYCAKDEDGGSLLGHRGQGTLVTVSSGTGGGGSGGGGSGGGGSEFDIQMTQSPSSLSASVGDRVTITCRASQDISNYLNWYQQKPGKAVKLLIYYTSILHSGVPSRFSGSGSGTDYTLTISSLQPEDFATYFCQQGNTLPWTFGGGTKVEIKLEGQPKANPTVTLFPPSSEELQANKATLVCLISDFYPGAVTVAWKADGSPVKAGVETTKPSKQSNNKYAASSYLSLTPEQWKSHRSYSCQVTHEGSTVEKTVAPTECSPIKTDVITMDPKDNCSKDANDTLLLQLTNTSAYYMYLLLLLKSVVYFAIITCCLLRRTAFCCNGEKSRAKRSGSGATNFSLLKQAGDVEENPGPTSATMDWIWRILFLVGAATGAHSGPQVQLQESGGGLAQAGGSLRLSCAASGRTFSMGWFRQAPGKEREFVAAITYSGGSPYYASSVRGRFTISRDNAKNTVYLQMNSLKPEDTAVYYCAANPTYGSDWNAENWGQGTQVTVSSGSGGGGSGGGGSGGGGSFEVQLVESGGGLVKPGGSLKLSCAASGFAFSIYDMSWVRQAPGKGLEWVAYISSGGGTTYYPDTVKGRFTISRDNAKNTLYLQMSSLRAEDTAMYYCARHSGYGSSYGVLFAYWGQGTLVTVSSTRASTKGPSVFPLAPSSKSTSGGTAALGCLVKDYFPEPVTVSWNSGALTSGVHTFPAVLQSSGLYSLSSVVTVPSSSLGTQTYICNVNHKPSNTKVDKRVEPKSCEVKTDSTDHVKPKETENTKQPSKSCHKPKAIVHTEKVNMMSLTVLGLRMLFAKTVAVNFLLTAKLFFLRAKRSGSGVKQTLNFDLLKLAGDVESNPGPSRGHMTEYKPTVRLATRDDVPRAVRTLAAAFADYPATRHTVDPDRHIERVTELQELFLTRVGLDIGKVWVADDGAAVAVWTTPESVEAGAVFAEIGPRMAELSGSRLAAQQQMEGLLAPHRPKEPAWFLATVGVSPDHQGKGLGSAVVLPGVEAAERAGVPAFLETSAPRNLPFYERLGFTVTADVEVPEGPRTWCMTRKPGA

Tested on: L363 cells
Experiment: JNG assay, co-culture with L363 cells
Assay type: cell-based
Settings: co-culture with L363
Outline: (§1)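 Jurkat NFAT-GFP (JNG) cells stably transduced with SARs by lentivirus, with drug selection where the construct carried a resistance gene, then co-cultured with target cells at E:T ~1:2 for ~4–18 h. % GFP-positive cells measured by FACS against parental JNG; +/- to 5+ correspond to ~5–50% GFP-positive.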

Molecule	NFAT-GFP ASSAY: L363
B1	+ (refer to approximately 5%, 10%, 20%, 30%, 40% and 50% GFP positive cells)
B2	3+ (refer to approximately 5%, 10%, 20%, 30%, 40% and 50% GFP positive cells)
B3	3+ (refer to approximately 5%, 10%, 20%, 30%, 40% and 50% GFP positive cells)
B4	2+ (refer to approximately 5%, 10%, 20%, 30%, 40% and 50% GFP positive cells)

Tested on: RS;411
Experiment: JNG assay, co-culture with RS;411 cells
Assay type: cell-based
Settings: co-culture with RS411
Outline: as §1

Molecule	NFAT-GFP ASSAY: RS411
B1	+ (refer to approximately 5%, 10%, 20%, 30%, 40% and 50% GFP positive cells)
B5	+ (refer to approximately 5%, 10%, 20%, 30%, 40% and 50% GFP positive cells)
B2	2+ (refer to approximately 5%, 10%, 20%, 30%, 40% and 50% GFP positive cells)
B3	2+ (refer to approximately 5%, 10%, 20%, 30%, 40% and 50% GFP positive cells)
B4	+ (refer to approximately 5%, 10%, 20%, 30%, 40% and 50% GFP positive cells)

Tested on: RAJI-CD19-KO cells
Experiment: JNG assay, co-culture with RAJI-CD19-KO cells
Assay type: cell-based
Settings: co-culture with Raji-CD19-KO
Outline: as §1

Molecule	NFAT-GFP ASSAY: Raji-CD19-KO
B2	4+ (refer to approximately 5%, 10%, 20%, 30%, 40% and 50% GFP positive cells)
B3	4+ (refer to approximately 5%, 10%, 20%, 30%, 40% and 50% GFP positive cells)
B4	2+ (refer to approximately 5%, 10%, 20%, 30%, 40% and 50% GFP positive cells)

Tested on: Nalm6 cells
Experiment: JNG assay, co-culture with Nalm6 cells
Assay type: cell-based
Settings: co-culture with Nalm6
Outline: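 Drug-selected populations of SAR-expressing Jurkat-NFAT-GFP cells meet target cells (about 1:2 E:T) for roughly 4–18 h. Flow cytometry gives % GFP+ cells, graded +/- to 5+ (≈5% to ≈50%) relative to the parental control.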

Molecule	NFAT-GFP ASSAY: Nalm6
B1	+ (refer to approximately 5%, 10%, 20%, 30%, 40% and 50% GFP positive cells)
B5	+ (refer to approximately 5%, 10%, 20%, 30%, 40% and 50% GFP positive cells)
B2	3+ (refer to approximately 5%, 10%, 20%, 30%, 40% and 50% GFP positive cells)
B3	3+ (refer to approximately 5%, 10%, 20%, 30%, 40% and 50% GFP positive cells)

Tested on: RAJI cells
Experiment: JNG assay, co-culture with RAJI cells
Assay type: cell-based
Settings: JNG cells expressing construct, co-culture with Raji
Outline: as §1

Molecule	NFAT-GFP ASSAY: Raji
B5	+/- (refer to approximately 5%, 10%, 20%, 30%, 40% and 50% GFP positive cells)
B4	+ (refer to approximately 5%, 10%, 20%, 30%, 40% and 50% GFP positive cells)

Tested on: U266 cells
Experiment: JNG NFAT-GFP induction on co-culture with U266
Assay type: cell-based
Settings: not given

Molecule	NFAT-GFP ASSAY: U266
B1	2+ (refer to approximately 5%, 10%, 20%, 30%, 40% and 50% GFP positive cells)
B5	2+ (refer to approximately 5%, 10%, 20%, 30%, 40% and 50% GFP positive cells)
B2	5+ (refer to approximately 5%, 10%, 20%, 30%, 40% and 50% GFP positive cells)
B3	5+ (refer to approximately 5%, 10%, 20%, 30%, 40% and 50% GFP positive cells)
B4	4+ (refer to approximately 5%, 10%, 20%, 30%, 40% and 50% GFP positive cells)
